Reference: patent US20240409645A1 (DUALYX, published 2024)
One block for each binder: values may come before it.

Molecular target: T1, human IL-2 receptor (IL-2Rα/IL-2Rβ/γc) (human, UniProt P01589 22-272; P14784 27-551; P31785 23-369)
T1 sequence 1: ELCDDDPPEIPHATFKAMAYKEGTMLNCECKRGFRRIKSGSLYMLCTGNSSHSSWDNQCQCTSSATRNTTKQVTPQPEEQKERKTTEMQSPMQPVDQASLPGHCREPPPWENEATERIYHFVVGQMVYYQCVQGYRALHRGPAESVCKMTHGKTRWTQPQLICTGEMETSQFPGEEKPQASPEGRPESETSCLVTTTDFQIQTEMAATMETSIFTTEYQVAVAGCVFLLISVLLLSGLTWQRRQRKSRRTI
T1 sequence 2: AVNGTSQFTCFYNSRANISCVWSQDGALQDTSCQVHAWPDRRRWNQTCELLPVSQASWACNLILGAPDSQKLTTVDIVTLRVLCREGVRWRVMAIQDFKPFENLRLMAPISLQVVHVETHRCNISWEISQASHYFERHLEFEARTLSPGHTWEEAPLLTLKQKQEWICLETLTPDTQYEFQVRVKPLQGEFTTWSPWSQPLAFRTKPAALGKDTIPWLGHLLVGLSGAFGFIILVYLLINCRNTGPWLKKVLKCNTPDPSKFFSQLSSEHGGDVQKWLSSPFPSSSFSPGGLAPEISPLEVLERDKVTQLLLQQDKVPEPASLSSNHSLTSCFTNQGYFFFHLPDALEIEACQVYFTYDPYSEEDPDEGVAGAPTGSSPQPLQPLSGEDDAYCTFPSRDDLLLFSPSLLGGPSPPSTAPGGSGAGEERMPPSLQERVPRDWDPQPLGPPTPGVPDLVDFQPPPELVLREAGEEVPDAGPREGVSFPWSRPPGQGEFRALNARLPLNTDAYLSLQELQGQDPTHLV
T1 sequence 3: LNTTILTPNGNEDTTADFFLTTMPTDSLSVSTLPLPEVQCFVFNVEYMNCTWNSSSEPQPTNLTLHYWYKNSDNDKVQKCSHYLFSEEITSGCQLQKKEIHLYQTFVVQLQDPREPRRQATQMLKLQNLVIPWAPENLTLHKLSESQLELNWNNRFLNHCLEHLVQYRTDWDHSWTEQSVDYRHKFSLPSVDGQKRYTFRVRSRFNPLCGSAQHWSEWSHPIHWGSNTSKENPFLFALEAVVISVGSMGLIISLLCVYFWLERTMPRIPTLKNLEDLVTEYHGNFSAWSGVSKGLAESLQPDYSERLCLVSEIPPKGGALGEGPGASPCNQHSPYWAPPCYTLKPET
Experiment: cell-based or functional assay

EC50 (nM) pSTAT5, NK, human PBMCs: 0.496 nM
EC50 (nM) pSTAT5, Treg, human PBMCs: < 0.1 pM
Fold Max signal (% pSTAT5+) Treg/NK: 5 fold
Max signal (% pSTAT5+), NK: 13 % pSTAT5+
Max signal (% pSTAT5+), Treg: 64.1 % pSTAT5+
fold EC50 NK/Treg: > 4960 fold
B3: DC00083 (other)
chain 1: QVQLVESGGGLVQAGGSLRLSCAASGGTFRTRNMGWFRRAPGKEREFVAAVSWNVDNKLYADSVKGRFTISRDNGRNMVYLQMNSLKPEDTAVYYCAADNIPLSSDMRPTATEYDYWGQGTQVTVSSDKTHTCPPCPAPEAAGGPSVFLFPPKPKDTLMISRTPEVTCVVVDVSHEDPEVKFNWYVDGVEVHNAKTKPREEQYNSTYRVVSVLTVLHQDWLNGKEYKCKVSNKALGAPIEKTISKAKGQPREPQVYTLPPSRDELTKNQVSLTCLVKGFYPSDIAVEWESNGQPENNYKTTPPVLDSDGSFLLYSKLTVDKSRWQQGNVFSCSVMHEALHNHYTQKSLSLSPGK
chain 2: QVQLVESGGGLVQAGGSLTLSCAAPGRTFGTDVVGWFRQAPGKEREFVASISRSGDGIYYDDSVKGRFTISRNNAWNTVNLQMNSLKVEDTAVYYCAAGDGWSTYDYWGQGTQVTVSSGGGGSGGGGSGGGGSEVQLVESGGGLVQTGGSLRLSCAASGGTFSRDAMAWFRQVPGKEREFVALISWSGATTNYADSVKGRFAISRDNGKNTVYLQMNRLKPADTAIYYCAADRRPMGSRSYFEPTEYDDWGQGTQVTVSSGGGGSGGGGSGGGGSQVQLVESGGGLVQPGGSLRLSCATSGFTFRNNFMSWVRQAPGKGLEWVSTISYGGESTTYAESVKGRFTISRDNAKNTLYLQMNNLKPEDTAVYYCAKATSYDSIRSGSRGQGTQVTVSSDKTHTCPPCPAPEAAGGPSVFLFPPKPKDTLMISRTPEVTCVVVDVSHEDPEVKFNWYVDGVEVHNAKTKPREEQYNSTYRVVSVLTVLHQDWLNGKEYKCKVSNKALGAPIEKTISKAKGQPREPQVYTLPPSRDELTKNQVSLTCLVKGFYPSDIAVEWESNGQPENNYKTTPPVLDSDGSFFLYSRLTVDKSRWQQGNVFSCSVMHEALHNHYTQKSLSLSPGK

EC50 (nM) pSTAT5, NK, human PBMCs: 0.187 nM
EC50 (nM) pSTAT5, Treg, human PBMCs: 0.00441 nM
Fold Max signal (% pSTAT5+) Treg/NK: 9 fold
Max signal (% pSTAT5+), NK: 4.9 % pSTAT5+
Max signal (% pSTAT5+), Treg: 44.1 % pSTAT5+
fold EC50 NK/Treg: 42 fold
B5: DC00086 (other)
chain 1: EVQLVESGGGLVQAGGSLRLSCAASGGSIYTYNMGWFRQAPGKEREFVAGTLWSGGDSVYADFAKGRFTLSRENAKNTLYLQMNSLKPEDTATYYCAIDPLSLTSDWRVDELSSWGKGTLVTVSSDKTHTCPPCPAPEAAGGPSVFLFPPKPKDTLMISRTPEVTCVVVDVSHEDPEVKFNWYVDGVEVHNAKTKPREEQYNSTYRVVSVLTVLHQDWLNGKEYKCKVSNKALGAPIEKTISKAKGQPREPQVYTLPPSRDELTKNQVSLTCLVKGFYPSDIAVEWESNGQPENNYKTTPPVLDSDGSFLLYSKLTVDKSRWQQGNVFSCSVMHEALHNHYTQKSLSLSPGK
chain 2: QVQLVESGGGLVQPGGSLRLSCATSGFTFRNNFMSWVRQAPGKGLEWVSTISYGGESTTYAESVKGRFTISRDNAKNTLYLQMNNLKPEDTAVYYCAKATSYDSIRSGSRGQGTQVTVSSGGGGSGGGGSGGGGSQVQLVESGGGLVQAGGSLTLSCAAPGRTFGTDVVGWFRQAPGKEREFVASISRSGDGIYYDDSVKGRFTISRNNAWNTVNLQMNSLKVEDTAVYYCAAGDGWSTYDYWGQGTQVTVSSGGGGSGGGGSGGGGSEVQLVESGGGLVQTGGSLRLSCAASGGTFSRDAMAWFRQVPGKEREFVALISWSGATTNYADSVKGRFAISRDNGKNTVYLQMNRLKPADTAIYYCAADRRPMGSRSYFEPTEYDDWGQGTQVTVSSGGGGSGGGGSGGGGSDKTHTCPPCPAPEAAGGPSVFLFPPKPKDTLMISRTPEVTCVVVDVSHEDPEVKFNWYVDGVEVHNAKTKPREEQYNSTYRVVSVLTVLHQDWLNGKEYKCKVSNKALGAPIEKTISKAKGQPREPQVYTLPPSRDELTKNQVSLTCLVKGFYPSDIAVEWESNGQPENNYKTTPPVLDSDGSFFLYSRLTVDKSRWQQGNVFSCSVMHEALHNHYTQKSLSLSPGK

Second part, the binder before the results:

B1: DC00082 (other)
chain 1: B3 chain 1
chain 2: QVQLVESGGGLVQPGGSLRLSCATSGFTFRNNFMSWVRQAPGKGLEWVSTISYGGESTTYAESVKGRFTISRDNAKNTLYLQMNNLKPEDTAVYYCAKATSYDSIRSGSRGQGTQVTVSSGGGGSGGGGSGGGGSEVQLVESGGGLVQTGGSLRLSCAASGGTFSRDAMAWFRQVPGKEREFVALISWSGATTNYADSVKGRFAISRDNGKNTVYLQMNRLKPADTAIYYCAADRRPMGSRSYFEPTEYDDWGQGTQVTVSSGGGGSGGGGSGGGGSQVQLVESGGGLVQAGGSLTLSCAAPGRTFGTDVVGWFRQAPGKEREFVASISRSGDGIYYDDSVKGRFTISRNNAWNTVNLQMNSLKVEDTAVYYCAAGDGWSTYDYWGQGTQVTVSSGGGGSGGGGSGGGGSDKTHTCPPCPAPEAAGGPSVFLFPPKPKDTLMISRTPEVTCVVVDVSHEDPEVKFNWYVDGVEVHNAKTKPREEQYNSTYRVVSVLTVLHQDWLNGKEYKCKVSNKALGAPIEKTISKAKGQPREPQVYTLPPSRDELTKNQVSLTCLVKGFYPSDIAVEWESNGQPENNYKTTPPVLDSDGSFFLYSRLTVDKSRWQQGNVFSCSVMHEALHNHYTQKSLSLSPGK
EC50 (nM) pSTAT5, NK, human PBMCs: 0.0227 nM
EC50 (nM) pSTAT5, Treg, human PBMCs: 0.848 pM
Fold Max signal (% pSTAT5+) Treg/NK: 2 fold
Max signal (% pSTAT5+), NK: 2.11 % pSTAT5+
Max signal (% pSTAT5+), Treg: 4.57 % pSTAT5+
fold EC50 NK/Treg: 27 fold

B2: DC00087 (other)
chain 1: B5 chain 1
chain 2: B1 chain 2
EC50 (nM) pSTAT5, NK, human PBMCs: 0.00972 nM
Fold Max signal (% pSTAT5+) Treg/NK: 3 fold
Max signal (% pSTAT5+), NK: 1.4 % pSTAT5+
Max signal (% pSTAT5+), Treg: 4.37 % pSTAT5+

B4: DC00085 (other)
chain 1: B5 chain 1
chain 2: EVQLVESGGGLVQTGGSLRLSCAASGGTFSRDAMAWFRQVPGKEREFVALISWSGATTNYADSVKGRFAISRDNGKNTVYLQMNRLKPADTAIYYCAADRRPMGSRSYFEPTEYDDWGQGTQVTVSSGGGGSGGGGSGGGGSQVQLVESGGGLVQPGGSLRLSCATSGFTFRNNFMSWVRQAPGKGLEWVSTISYGGESTTYAESVKGRFTISRDNAKNTLYLQMNNLKPEDTAVYYCAKATSYDSIRSGSRGQGTQVTVSSGGGGSGGGGSGGGGSQVQLVESGGGLVQAGGSLTLSCAAPGRTFGTDVVGWFRQAPGKEREFVASISRSGDGIYYDDSVKGRFTISRNNAWNTVNLQMNSLKVEDTAVYYCAAGDGWSTYDYWGQGTQVTVSSGGGGSGGGGSGGGGSDKTHTCPPCPAPEAAGGPSVFLFPPKPKDTLMISRTPEVTCVVVDVSHEDPEVKFNWYVDGVEVHNAKTKPREEQYNSTYRVVSVLTVLHQDWLNGKEYKCKVSNKALGAPIEKTISKAKGQPREPQVYTLPPSRDELTKNQVSLTCLVKGFYPSDIAVEWESNGQPENNYKTTPPVLDSDGSFFLYSRLTVDKSRWQQGNVFSCSVMHEALHNHYTQKSLSLSPGK
EC50 (nM) pSTAT5, NK, human PBMCs: 0.663 nM
EC50 (nM) pSTAT5, Treg, human PBMCs: 0.0313 nM
Fold Max signal (% pSTAT5+) Treg/NK: 4 fold
Max signal (% pSTAT5+), NK: 2.19 % pSTAT5+
Max signal (% pSTAT5+), Treg: 8.49 % pSTAT5+
fold EC50 NK/Treg: 21 fold
